Molecular target: T1, RNF31 PUB domain (Homo sapiens, UniProt Q96EP0)
T1 construct: MBP-TEV (N, cleaved yes); made in house; host or cells: E. coli BL21 (DE3) pLysS
T1 sequence (Q96EP0 1-179): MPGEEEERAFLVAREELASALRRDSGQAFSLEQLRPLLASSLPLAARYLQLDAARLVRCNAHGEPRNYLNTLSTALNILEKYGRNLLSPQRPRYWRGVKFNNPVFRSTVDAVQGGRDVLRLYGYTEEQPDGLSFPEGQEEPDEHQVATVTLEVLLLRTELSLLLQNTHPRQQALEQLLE
Assay: Phage Library Screening with NGS, RNF31 PUB domain
Assay type: binding
Settings: for Phage library screen NGS readout, Target Concentration 10 / Phage library screen NGS readout, Target Concentration 30 / Phage library screen NGS readout, Target Concentration 100 / Phage library screen NGS readout, Target Concentration 300 / Phage library screen NGS readout, Target Concentration 1000: RNF31 PUB domain clusters C41-C45; for Phage library screen NGS readout, BLANK: clusters C41-C45

[1] = target concentration 1000, first column
[2] = target concentration 1000, second column

| Phage library screen NGS readout, Target Concentration 10 | Phage library screen NGS readout, Target Concentration 30 | Phage library screen NGS readout, Target Concentration 100 | Phage library screen NGS readout, Target Concentration 300 | Phage library screen NGS readout, Target Concentration 1000 [1] | Phage library screen NGS readout, Target Concentration 1000 [2] | Phage library screen NGS readout, BLANK (column 1 of 5) | Phage library screen NGS readout, BLANK (column 2 of 5) | Phage library screen NGS readout, BLANK (column 3 of 5) | Phage library screen NGS readout, BLANK (column 4 of 5) | Phage library screen NGS readout, BLANK (column 5 of 5) | Sequence |
| --- | --- | --- | --- | --- | --- | --- | --- | --- | --- | --- | --- |
| 0 | 0 | 0 | 1 | 7 | 4 | 0 | 0 | 1 | 0 | 0 | DPAYDWCLYAAEYCHTD |
| 1 | 1 | 1 | 3 | 6 | 4 | 1 | 1 | 1 | 0 | 2 | DPAWLDCIYAAYDCVTD |
| 0 | 0 | 0 | 4 | 10 | 13 | 0 | 0 | 0 | 0 | 0 | DPASHMCLEAAVMCTYD |
| 0 | 0 | 0 | 2 | 7 | 7 | 0 | 0 | 0 | 1 | 0 | DPAIWECVSAAAVCMTY |
| 0 | 0 | 1 | 2 | 12 | 12 | 0 | 3 | 0 | 0 | 1 | DPAYRDCDWAALYCDDF |
| 0 | 0 | 1 | 2 | 6 | 4 | 1 | 0 | 0 | 0 | 2 | DPAFWECMYAASDCDAS |
| 0 | 1 | 0 | 2 | 6 | 6 | 0 | 0 | 0 | 0 | 4 | DPATWWCLYAAEDCVNI |
| 0 | 0 | 0 | 4 | 8 | 5 | 2 | 0 | 0 | 0 | 0 | DPAYWDCLYAAADCAFY |
| 0 | 0 | 0 | 0 | 11 | 10 | 1 | 0 | 0 | 0 | 0 | DPAYEDCADAAMYCDMD |
| 0 | 0 | 0 | 1 | 7 | 6 | 0 | 0 | 0 | 0 | 0 | DPAEDECDWAALYCDMQ |
| 0 | 1 | 0 | 1 | 6 | 6 | 0 | 0 | 0 | 0 | 0 | DPAMQDCQLAALVCTTY |
| 0 | 0 | 0 | 2 | 8 | 4 | 0 | 3 | 0 | 0 | 2 | DPAYWHCLYAAASCDDI |
| 0 | 0 | 0 | 4 | 12 | 10 | 0 | 0 | 0 | 0 | 0 | DPAQYQCDIAAQVCSTY |
| 0 | 0 | 0 | 2 | 8 | 8 | 0 | 1 | 1 | 0 | 0 | DPAFMDCVFAAAVCATY |
| 0 | 0 | 0 | 3 | 3 | 8 | 0 | 0 | 0 | 0 | 2 | DPAYWDCMYAAFYCDDI |
| 0 | 0 | 0 | 1 | 6 | 6 | 0 | 1 | 0 | 0 | 0 | DPAYYTCDWAAIYCDYH |
| 1 | 3 | 0 | 7 | 19 | 6 | 1 | 0 | 0 | 0 | 1 | DPAEDECQDAAILCSYN |
| 0 | 0 | 0 | 29 | 56 | 80 | 0 | 0 | 0 | 0 | 0 | DPAQEACWDAAIMCTYR |
